Results reported in IntAct's records for PubMed 20059950.

B1: RAC-beta serine/threonine-protein kinase (Homo sapiens), P31751 (parent)
chain: MNEVSVIKEGWLHKRGEYIKTWRPRYFLLKSDGSFIGYKERPEAPDQTLPPLNNFSVAECQLMKTERPRPNTFVIRCLQWTTVIERTFHVDSPDEREEWMRAIQMVANSLKQRAPGEDPMDYKCGSPSDSSTTEEMEVAVSKARAKVTMNDFDYLKLLGKGTFGKVILVREKATGRYYAMKILRKEVIIAKDEVAHTVTESRVLQNTRHPFLTALKYAFQTHDRLCFVMEYANGGELFFHLSRERVFTEERARFYGAEIVSALEYLHSRDVVYRDIKLENLMLDKDGHIKITDFGLCKEGISDGATMKTFCGTPEYLAPEVLEDNDYGRAVDWWGLGVVMYEMMCGRLPFYNQDHERLFELILMEEIRFPRTLSPEAKSLLAGLLKKDPKQRLGGGPSDAKEVMEHRFFLSINWQDVVQKKLLPPFKPQVTSEVDTRYFDDEFTAQSITITPPDRYDSLGLLELDQRTHFPQFSYSASIRE

Variants of: B1
Settings: with ttc3_human TTC3, P53804
Sequence of ttc3_human TTC3, P53804 (P53804 whole entry): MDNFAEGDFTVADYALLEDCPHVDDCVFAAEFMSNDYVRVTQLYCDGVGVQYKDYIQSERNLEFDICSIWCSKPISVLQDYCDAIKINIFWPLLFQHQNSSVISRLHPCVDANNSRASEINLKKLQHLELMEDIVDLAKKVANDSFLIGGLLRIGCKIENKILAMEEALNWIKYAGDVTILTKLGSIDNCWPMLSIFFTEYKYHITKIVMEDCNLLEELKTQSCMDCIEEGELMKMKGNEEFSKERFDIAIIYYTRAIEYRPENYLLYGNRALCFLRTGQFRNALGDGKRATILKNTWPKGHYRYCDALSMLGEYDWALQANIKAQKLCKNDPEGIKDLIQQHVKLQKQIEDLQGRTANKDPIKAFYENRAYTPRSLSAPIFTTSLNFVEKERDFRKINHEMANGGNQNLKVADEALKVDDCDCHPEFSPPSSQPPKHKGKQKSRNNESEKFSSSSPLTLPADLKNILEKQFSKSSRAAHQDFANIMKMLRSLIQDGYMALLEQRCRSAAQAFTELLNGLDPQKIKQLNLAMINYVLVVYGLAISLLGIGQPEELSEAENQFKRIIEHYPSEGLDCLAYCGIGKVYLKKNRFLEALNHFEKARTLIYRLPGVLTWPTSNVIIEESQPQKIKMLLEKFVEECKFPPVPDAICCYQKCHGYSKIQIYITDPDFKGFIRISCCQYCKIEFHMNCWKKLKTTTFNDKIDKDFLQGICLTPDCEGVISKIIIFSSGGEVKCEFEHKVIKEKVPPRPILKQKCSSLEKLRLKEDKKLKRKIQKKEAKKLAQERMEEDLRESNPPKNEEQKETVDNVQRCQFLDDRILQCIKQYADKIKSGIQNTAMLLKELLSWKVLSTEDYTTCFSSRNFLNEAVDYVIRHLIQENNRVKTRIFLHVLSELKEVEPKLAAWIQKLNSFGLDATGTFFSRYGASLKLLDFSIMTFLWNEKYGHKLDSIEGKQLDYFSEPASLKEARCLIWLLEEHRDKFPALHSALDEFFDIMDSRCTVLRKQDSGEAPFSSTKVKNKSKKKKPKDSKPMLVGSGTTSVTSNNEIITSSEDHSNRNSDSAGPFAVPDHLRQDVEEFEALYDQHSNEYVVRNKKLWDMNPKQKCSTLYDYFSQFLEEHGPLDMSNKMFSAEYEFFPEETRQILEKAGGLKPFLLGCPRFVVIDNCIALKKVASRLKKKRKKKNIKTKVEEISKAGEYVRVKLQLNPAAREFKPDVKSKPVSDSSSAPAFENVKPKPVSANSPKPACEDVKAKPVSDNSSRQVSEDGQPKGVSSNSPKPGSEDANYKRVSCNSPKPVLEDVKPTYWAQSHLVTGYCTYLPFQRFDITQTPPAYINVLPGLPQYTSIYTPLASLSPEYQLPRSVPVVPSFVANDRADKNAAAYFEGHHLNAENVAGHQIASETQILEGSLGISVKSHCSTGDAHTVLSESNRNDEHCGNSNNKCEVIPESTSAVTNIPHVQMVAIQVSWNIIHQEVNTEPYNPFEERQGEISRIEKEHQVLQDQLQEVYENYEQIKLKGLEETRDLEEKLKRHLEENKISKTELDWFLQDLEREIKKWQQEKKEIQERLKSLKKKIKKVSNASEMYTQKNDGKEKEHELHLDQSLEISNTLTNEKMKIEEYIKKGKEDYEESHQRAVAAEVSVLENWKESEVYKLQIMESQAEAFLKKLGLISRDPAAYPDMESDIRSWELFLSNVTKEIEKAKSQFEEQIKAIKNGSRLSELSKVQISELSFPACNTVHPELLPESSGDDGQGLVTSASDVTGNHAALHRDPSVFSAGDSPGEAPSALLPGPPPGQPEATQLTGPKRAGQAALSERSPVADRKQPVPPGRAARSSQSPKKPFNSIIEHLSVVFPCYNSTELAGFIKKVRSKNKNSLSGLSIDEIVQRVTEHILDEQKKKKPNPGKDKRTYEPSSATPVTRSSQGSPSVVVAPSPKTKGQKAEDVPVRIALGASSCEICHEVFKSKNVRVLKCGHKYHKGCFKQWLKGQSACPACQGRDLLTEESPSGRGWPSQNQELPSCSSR

Row | Variant | effect of a mutation on the interaction
1 | MNEVSVIKEGWLHKRGEYIKTWRPRYFLLKSDGSFIGYKERPEAPDQTLPPLNNFSVAECQLMKTERPRPNTFVIRCLQWTTVIERTFHVDSPDEREEWMRAIQMVANSLKQRAPGEDPMDYKCGSPSDSSTTEEMEVAVSKARAKVTMNDFDYLKLLGKGTFGKVILVREKATGRYYAMKILRKEVIIAKDEVAHTVTESRVLQNTRHPFLTALKYAFQTHDRLCFVMEYANGGELFFHLSRERVFTEERARFYGAEIVSALEYLHSRDVVYRDIKLENLMLDKDGHIKITDFGLCKEGISDGATMKAFCGTPEYLAPEVLEDNDYGRAVDWWGLGVVMYEMMCGRLPFYNQDHERLFELILMEEIRFPRTLSPEAKSLLAGLLKKDPKQRLGGGPSDAKEVMEHRFFLSINWQDVVQKKLLPPFKPQVTSEVDTRYFDDEFTAQSITITPPDRYDSLGLLELDQRTHFPQFAYSASIRE [T309A;S474A] | disrupting interaction strength
